System: MS2 coat protein
Assay: apparent KD of MS2 coat protein; designed switch direction (-1 OFF switch, 1 ON switch): -1; higher = weaker reporter binding
Method in brief: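 An oligonucleotide input, 200 uM small-molecule ligand, or no input was present during titration of SNAP-549-labelled MS2 coat protein, which was doubled from 0.7 or 1.5 nM to 3 µM. Designed RNA switches had been transcribed on Illumina chips by stalled E. coli RNA polymerase. Apparent KD per design is the median over clusters of curves fitted to normalised cluster fluorescence.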

[1] = Eterna round: R95, input ligand: microRNA oligo, concentration not stated
[2] = input ligand: microRNA oligo, concentration not stated
[3] = Eterna round: R95, input ligand: FMN 200 uM
[4] = Eterna round: R95, input ligand: none

Sequence | apparent KD of MS2 coat protein (input ligand: FMN 200 uM) [nM] | apparent KD of MS2 coat protein (input ligand: none) [nM] | apparent KD of MS2 coat protein [1] [nM] | apparent KD of MS2 coat protein [2] [nM] | apparent KD of MS2 coat protein [3] [nM] | apparent KD of MS2 coat protein [4] [nM]
CCUCUACAUGAGGAUCACCCAUGUGAGGAUAUCAAAGUCAGGGCGGCGCCCUGACUCAUGAGAAGGUGCAUGAA [EX1 A.16] (Eterna round: R97, puzzle: Exclusion 1) | 31.8 | 22.4 | – | – | – | –
AAAAGAUGAGGAUAUAUAUGGAAUCCAAGGCAUGUGCUCUCACAUGAGGAUCACCCAUGUAGAAGGCAUCUGCC [Laxetera] (puzzle: Exclusion 2) | – | – | 9.79 | – | – | –
AUGGGUCCUCACGGAGCUACAUGAGGAUCACCCAUGUGUAUUGAGGAUAUCCACUGCCGAGGGCUGGAGAAGGCAGUGUACUGU [Ex NG3 #92] (Eterna round: R96, puzzle: Exclusion NG 3) | 124 | 108 | – | 89.3 | – | –
AACUAGUCAGGAUAUACAUGAGGAUCACCCAUGUAAACUUUUAGUUUAAUUUGAAUGUGUAGAAGGGACAUAAA [Ex3 #43] (Eterna round: R97, puzzle: Exclusion 3) | 20.7 | 20.3 | – | – | – | –
AACACUGUAGGAUAUCAUGAACUGGACUUGAGGAUCACCCAAGUGUAUCCUGGAGUGCCGUGAGAAGGACGGAAAA [Erzalelaan] (Eterna round: R97, puzzle: Exclusion 5) | 56.5 | 46.9 | – | – | – | –
UUUAGUUCAGGAUAUGUAGAUUUUAACAUGAGGAUCACCCAUGUAGAUCCUGAAUUAACUACAGAAGGGAACAUUA [Exclusion 5: 2:d] (puzzle: Exclusion 5) | – | – | 19.4 | – | – | –
GCAGGUCGAGGAUAUACAUGAGGAUCACCCAUGUUGAUCAAGCGACUUCGGUCGCAAUGUAGAAGGCGACCUGC [E3/7-A6] (Eterna round: R97, puzzle: Exclusion 3) | 151 | 1210 | – | – | – | –
CCAUAUAACUGAGGAUAUACGCACCACUAACUAGUAGAAGGCAGACAUGAGGAUCACCCAUGUGAUUUCUCAAUAUUAUACAUC [Prohibition 74 - Jieux - Exclusion NG 1] (Eterna round: R96, puzzle: Exclusion NG 1) | 927 | 775 | – | 357 | – | –
GAGUGACAUGAGGAUCACCCAUGUGAGGAUAUCGGACGGACCAAAUUAACAAUAGAAGCGAGAAGGCACAUAAG [Exclusion 1 V11] (puzzle: Exclusion 1) | – | – | 74.3 | – | 72.4 | 81.3
AAUAUCGUAGGAUAUUAGUGCUCAGACAUGAGGAUCACCCAUGUUUGGUGGGUUGGAGAAUGAGAAGGGCGAUGAA [EX5 #17] (Eterna round: R97, puzzle: Exclusion 5) | 376 | 687 | – | – | – | –
UGAUCUAGCGGAGGAUAUACAUGAGGAUCACCCAUGUAGACUCUAUGACCGUAGUCGUGGAGUGUGUAGAAGGCCGCUAGAUCU [JL ENG2 3.74] (Eterna round: R96, puzzle: Exclusion NG 2) | 14.3 | 12.6 | – | 9.24 | – | –
GGUGAGCUAGGAUAUGCUUUGGGCUCGCAUUCCUUCGAUAAACUUGAGGAUCACCCAAGUAGAAGGAGCUUGCC [salish99_ex2_r4_032] (Eterna round: R97, puzzle: Exclusion 2) | 23.3 | 15.8 | – | – | – | –
CUAUUCCGAGGAUAUACAUGAGGAUCACCCAUGUCGGGCCUCCGCGUUUAGCGCCUCAGUAGAAGGCGGGUUUC [JL Riri mod 2] (puzzle: Exclusion 3) | – | – | 17.2 | – | – | –
AACUGUACAGGAUAUACAUGAGGAUCACCCAUGUGAGAAUUAAGUGGAGAACCACAAAGUAGAAGGGUACAGGA [Mat - Exclusion 3 - JL mod - D17] (Eterna round: R96, puzzle: Exclusion 3) | – | – | – | 38.4 | – | –
AAUUCUAGGGUCAGACGCACAAGCUUUUUGCUCGUUUUAACAUGAGGAUCACCCAUGUCUAGUGGAUCUGAUCGGGC [JL ViennaUCT Isreen mod 8] (puzzle: Sensor v3, turn-off variant 2) | – | – | 72.9 | – | 24.8 | 22.4
AGUAACAGAGGAUAUACUAUUUUAUGUGUUUGUUAUUUUAAACAUGAGGAUCACCCAUGUAGAAGGCUGAAUGA [JMF 100] (puzzle: Exclusion 2) | – | – | 23.5 | – | – | –
AACUAGUGAGGAUAUACAUGAGGAUCACCCAUGUACGUCGUGGGUAGAAAACAAGUCAGUAGAAGGUGCUAGAC [Ininor] (puzzle: Exclusion 3) | – | – | 174 | – | – | –

Sequence | apparent KD of MS2 coat protein (input ligand: FMN 200 uM) [nM] | apparent KD of MS2 coat protein (input ligand: none) [nM] | apparent KD of MS2 coat protein [1] [nM] | apparent KD of MS2 coat protein [2] [nM] | apparent KD of MS2 coat protein [3] [nM] | apparent KD of MS2 coat protein [4] [nM]
UGUCAGAUGGUAGGAUAUCUAUAUCGAGUGACCCUUUCAUAACAUGAGGAUCACCCAUGUCGGUGGGAGAAGGGCCGUAUGGUG [salish99_ExNG02_R04_029] (Eterna round: R96, puzzle: Exclusion NG 2) | 28.6 | 28.5 | – | 23.2 | – | –
CCUCUACAUGAGGAUCACCCAUGUCAGGAUAUGCGAAUUUCAUCAAAAGAUGAAAUUUGCAGAAGGGACUAAGC [Omei Ex1 A34] (Eterna round: R97, puzzle: Exclusion 1) | 282 | 246 | – | – | – | –
CUAGCGAAUGUAGGAUAUCGGACUGUUUCAGUCUGAGAAGGACAUGAGGAUCACCCAUGUAUAGCUACGUGAGUAGCUCGCUAG [JL ENG1 3.91] (Eterna round: R96, puzzle: Exclusion NG 1) | 43.6 | 17.1 | – | 13 | – | –
AGUAACUAUCACGAAAGUGAUAGUUACACAAGCAGUGAAACAUGAGGAUCACCCAUGUCCUCAUAUGCUCGUCUUAU [Sensor 3 - 30] (puzzle: Sensor v3, turn-off variant 2) | – | – | 1280 | – | 119 | 114
ACAUGAGGAUCACCCAUGUCCGUCUGAUCUGUCUCGGCUGUCGAGGAUAUAGCCCGGUAUCCGCGCUAGAAGGUGGGAGUCGGC [Aenatbe mod 99] (Eterna round: R96, puzzle: Exclusion NG 3) | 29.8 | 35.7 | – | 25.3 | – | –
GGCGGUGCAGGAUAUUGAAAACUACACAUGAGGAUCACCCAUGUUCCUCACCGGUACAAGCAAGAAGGGCGGUGCA [Erxegetiis] (puzzle: Exclusion 5) | – | – | 19.4 | – | 18.9 | 18.3
AGUGCUAACACGUUGGUGUUAGUACCAUAAGCUUGUGAUACAUGAGGAUCACCCAUGUCCUCAUAAGCUCGUCUUAU [salish99_TOv2_r2_098] (puzzle: Sensor v3, turn-off variant 2) | – | – | 508 | – | 30.6 | 29.4
UAGGUACAUGAGGAUCACCCAUGUGAGGAUAUAGAUGAAGAUUGCGAGAGGGAGAGGACUAGAAGGCACAGUGG [JR_Exclu1_Sub036] (puzzle: Exclusion 1) | – | – | 30.9 | – | – | –
AUUAUAAGGAGAGGAUAUCUAAUAAUAUAUAUUAGAGAAGGCUCACAUGAGGAUCACCCAUGUUUUUUUUUUUUUUUUUUUUUU [Default title] (Eterna round: R96, puzzle: Exclusion NG 1) | 89.5 | 71.7 | – | 65 | – | –
AAGAAACAUGAGGAUCACCCAUGUGAGGAUAUGAAAAAGAAAAGAAAAGAAAGAAGAAUCAGAAGGCACAAAGC [salish99-ex1_r3_090] (puzzle: Exclusion 1) | – | – | 28.6 | – | 22.5 | 32.1
GUGGGUUAUGUCAGGAUAUGGCCGUUAGGGCGACGCCAGAAGGGACAUGAGGAUCACCCAUGUCUCCGGGCAUC [BmEX4 C.10] (Eterna round: R97, puzzle: Brourd's mod of Exclusion 4) | 15.1 | 14.8 | – | – | – | –
GUGUUGCGAGGAUAUAUAAGGGUAUGUUCUUAGGAUAUGGAACAUGAGGAUCACCCAUGUAGAAGGUGCAUAAC [JR_Ex2_Sub046] (Eterna round: R97, puzzle: Exclusion 2) | 459 | 761 | – | – | – | –
GCAGAAUGAGUUAGGAUAUGAUGAUUUUUCGGAUAUCAGAAGGAACUUGAGGAUCACCCAAGUUAAGAUAGGGU [JR_BMEx4_Sub066] (Eterna round: R97, puzzle: Brourd's mod of Exclusion 4) | 258 | 170 | – | – | – | –
GGCCCGCGCGGGCCCGGGCCCGGGACAUGAGGAUCACCCAUGUAGGAUAUCCGGCCCGCCGGGCCGGAGAAGGACAUGGGCCCG [-48.9, -45.2 kcal, 17% A] (Eterna round: R96, puzzle: Exclusion NG 3) | 34.1 | 16.9 | – | 11.1 | – | –
CUCGUGCAGCAAAGCUGUACGAGUACAUGAGGAUCACCCAUGUAGGAUAUGGUACGCUUUGCGUGCUAGAAGGAUAUGUGUAGG [Mat - Exclusion NG 3 - Mod of JL - D86] (Eterna round: R96, puzzle: Exclusion NG 3) | 37.5 | 36.1 | – | 24.1 | – | –
GUGCUAUAGGAAGGAUAUACUUCAUUAGACUAACAUGAGGAUCACCCAUGUAACCUUAUGUAUGUGUAGAAGGUCCAUAGCUUA (Eterna round: R96, puzzle: Exclusion NG 2) | 15.5 | 20.1 | – | 13.3 | – | –
CAGUACUGAGGAUAUACAUGAGGAUCACCCAUGUGUUCGAGCUAGGAAACUAGCAAAAGUAGAAGGCAGUACUG [salish99_ex3_r3_080] (puzzle: Exclusion 3) | – | – | 15.4 | – | 85.2 | 14.9
